Molecular target: T1, Trypsin Soybean Inhibitor (TSI) (Glycine max, UniProt P01070)
T1 chain: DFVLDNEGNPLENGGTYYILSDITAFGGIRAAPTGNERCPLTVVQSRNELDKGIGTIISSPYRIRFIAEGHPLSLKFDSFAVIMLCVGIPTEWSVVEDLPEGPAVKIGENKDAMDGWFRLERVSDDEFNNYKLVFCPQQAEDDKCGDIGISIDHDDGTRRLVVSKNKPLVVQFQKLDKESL
Experiment: enzyme inhibition assay (BAPNA substrate, Cheng-Prusoff)

Ki: 2180 nM
B1: Implantation serine proteinase complex (ISP1-ISP2) (protein)
chain 1: KPVGIVGGQRTPPGKWPWQVSLRMYSYEVNSWVHICGGSIIHPQWILTAAHCIQSQDADPAVYRVQVGEVYLYKEQELLNISRIIIHPDYNDVSKRFDLALMQLTALLVTSTNVSPVSLPKDSSTFDSTDQCWLVGWGNLLQRVPLQPPYQLHEVKIPIQDNKSCKRAYRKKSSDEHKAVAIFDDMLCAGTSGRGPCFGDSGGPLVCWKSNKWIQVGVVSKGIDCSNNLPSIFSRVQSSLAWIHQHIQ
chain 2: not shown

Source: publication PMC1713233 (2006)
